Patent US20170183645A1
“And” between values parts separate entries of the source, which are not always exact repeats. Equal values may be shown once.

B1: Anti-Flu neuraminidase VHH (clone Flu 27-8) (VHH)
VHH: QVQLVESGGRLVQAGGSLRVACVASGGTFSSYVMGWFRQAPGKERESVASITRDGDTTFYADSVKGRFTIARDNAKNTVYLQMNSLQPEDTGVYYCAAAVQYGTLWSRQYDYWGQGTQVTVSS
B2: humanized VHH h27-8GL (monovalent) (VHH)
VHH: QVQLVESGGGLVQPGGSLRLSCAASGGTFSSYVMGWFRQAPGKGLESVASITRDGDTTFYADSVKGRFTISRDNSKNTLYLQMNSLRAEDTAVYYCAAAVQYGTLWSRQYDYWGQGTLVTVSS
B3: Bivalent homodimer of humanized anti-Flu neuraminidase VHH (clone Flu h27-8GL.h27-8GL) (VHH)
chain: QVQLVESGGGLVQPGGSLRLSCAASGGTFSSYVMGWFRQAPGKGLESVASITRDGDTTFYADSVKGRFTISRDNSKNTLYLQMNSLRAEDTAVYYCAAAVQYGTLWSRQYDYWGQGTLVTVSSAHHSEDPSSKAPKAPMAQVQLVESGGGLVQPGGSLRLSCAASGGTFSSYVMGWFRQAPGKGLESVASITRDGDTTFYADSVKGRFTISRDNSKNTLYLQMNSLRAEDTAVYYCAAAVQYGTLWSRQYDYWGQGTLVTVSS

biological target: H1N1 influenza neuraminidase (influenza H1N1 (strain not stated))

Binder	ELISA reactivity compared to control protein (BSA)
B1	1.89
B2	1.62 and 1.21
B3	2.44 and 1.31

biological target: H3N2 influenza neuraminidase (influenza H3N2 (strain not stated))

Binder	ELISA reactivity compared to control protein (BSA)
B1	1.08
B2	1.34 and 1.09
B3	1.67 and 1.13

biological target: influenza H5N1 neuraminidase (H5N1 A/Thailand/1(KAN-1)/2004) (influenza A virus H5N1 A/Thailand/1(KAN-1)/2004)

Binder	ELISA reactivity compared to control protein (BSA)
B1	2.48
B2	2.27 and 1.78
B3	3.73 and 2.15
